Publication PMC3176816, “Characterization and Regulation of the Osmolyte Betaine Synthesizing Enzymes GSMT and SDMT from Halophilic Methanogen Methanohalophilus portucalensis” (PLoS ONE, 2011)

Legend:
[1] = target: T1, MpGSMT (Methanohalophilus portucalensis, UniProt F6KV61); assay: radiometric acid-washed charcoal methyltransferase assay; assay type: biochemical
T1 construct: gene gsmt; full length, 263 residues, 29,040 Da calculated (35 kD on SDS-PAGE)
T1 sequence (F6KV61 1-263): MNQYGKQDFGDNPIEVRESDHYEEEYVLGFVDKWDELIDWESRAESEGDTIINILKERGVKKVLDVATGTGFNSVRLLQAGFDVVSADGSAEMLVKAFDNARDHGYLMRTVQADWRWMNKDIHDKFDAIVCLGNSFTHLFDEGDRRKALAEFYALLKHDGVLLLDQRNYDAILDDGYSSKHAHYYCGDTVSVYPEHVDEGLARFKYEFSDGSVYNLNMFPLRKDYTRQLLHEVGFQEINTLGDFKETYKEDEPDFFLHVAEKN
Source text: radiometric acid-washed charcoal methyltransferase assay on MpGSMT

[2] = target: T2, MpSDMT (Methanohalophilus portucalensis, UniProt F6KV62); assay: as above; assay type: biochemical; details: read-out: I50 AdoHcy
T2 construct: gene SAMN06264941_0526; full length, 278 residues, 30,690 Da calculated (38 kD on SDS-PAGE)
T2 sequence (F6KV62 1-278): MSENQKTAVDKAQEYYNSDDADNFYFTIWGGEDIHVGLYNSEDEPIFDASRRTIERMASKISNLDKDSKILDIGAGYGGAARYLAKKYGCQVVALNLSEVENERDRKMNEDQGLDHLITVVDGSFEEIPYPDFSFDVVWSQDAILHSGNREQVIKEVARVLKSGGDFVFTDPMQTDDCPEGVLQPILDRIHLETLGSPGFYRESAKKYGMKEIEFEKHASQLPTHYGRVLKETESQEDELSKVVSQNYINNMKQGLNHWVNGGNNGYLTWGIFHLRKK
Source text: radiometric acid-washed charcoal methyltransferase assay on MpSDMT

[3] = substrate: C[S+](CC[C@H](N)C(=O)O)C[C@H]1O[C@@H](n2cnc3c(N)ncnc32)[C@H](O)[C@@H]1O; assay: purified protein; details: TES pH 7.3, 37 °C, labelled compound
[4] = substrate: CN(C)CC(=O)O; assay: radiometric acid-washed charcoal methyltransferase assay; assay type: biochemical, Methanohalophilus portucalensis; details: DMT activity, co-substrate AdoMet, TES pH 7.3, 37 °C (text b54 prints a different Km, equal to that of the native enzyme in the table)
[5] = substrate: CNCC(=O)O; assay: as above; assay type: biochemical, Methanohalophilus portucalensis; details: SMT activity, co-substrate AdoMet, TES pH 7.3, 37 °C (text b54 prints a different Km, equal to that of the native enzyme in the table)
[6] = target: the molecule itself; assay: AUC; sedimentation velocity, 0.70 mg/ml MpGSMT in 0.1 M TES buffer (pH 7.3) with 0 to 2.0 M KCl, 20°C, 42,000 rpm, SEDFIT 9.4c; monomer to dimer

Q: Which activity at 1 M ([1]; read-out: Relative activity (%) / Betaine / 1 M) does the source give for `C[N+](C)(C)CC(=O)[O-]` [betaine] here?
A: 30%

Q: `Nc1ncnc2c1ncn2[C@@H]1O[C@H](CSCC[C@H](N)C(=O)O)[C@@H](O)[C@H]1O` [AdoHcy] was tested. Which IC50 ([1]; read-out: I50 AdoHcy) did it give?
A: 70 µM

Q: And the IC50 [2]?
A: 150 µM

B1: MpSDMT (Methanohalophilus portucalensis FDF-1) (protein)
chain: T2 sequence (F6KV62 1-278)
notes: full length, 278 residues, 30,690 Da calculated (38 kD on SDS-PAGE)
Q: With B1 as the molecule, how does the Km ([3]; SMT activity, methyl acceptor sarcosine) read?
A: 500 µM

Q: And the Km [4]?
A: 660 µM

Q: What about the Km [5] of the same molecule?
A: 660 µM

B2: Methanohalophilus portucalensis glycine sarcosine methyltransferase (recombinant MpGSMT) (enzyme, UniProt F6KV61 1-263, looked up)
chain: T1 sequence (F6KV61 1-263)
notes: glycine sarcosine methyltransferase (GSMT) of Methanohalophilus portucalensis strain FDF1T; complete Mpgsmt gene, 792 bp, 263 amino acids, GenBank HQ634197; The tag is inferred from the vector and the Ni Sepharose purification; source: E. coli BL21(DE3)RIL, pET28a, purified (Ni Sepharose 6 Fast Flow)
Q: How did the Km ([3]; GMT activity, methyl acceptor glycine) turn out when B2 was run?
A: 8260 µM

Q: What about the “stoichiometry N” value [6] of the same molecule?
A: 2
